Values of other authors, collected in paper PMC3237005.

Experiments:
[1] = target: Lethal factor (LF) LFN (Bacillus anthracis) (UniProt P15917)
[2] = target: Edema factor (EF) EFN (Bacillus anthracis) (UniProt P40136)

Protective antigen (PA63 heptamer) PA63 (from UniProt P13423)
Kd [1]: 1 nM
Kd [2]: 1 nM
